We go through four molecules from paper PMC7907208, “Aptamer-targeting of Aleutian mink disease virus (AMDV) can be an effective strategy to inhibit virus replication”.

In this series the target is AMDV VP2 (Aleutian mink disease virus, UniProt A0A168PAM8 200-588). Description: ELONA. The conditions noted are these: protein: recombinant; tags: His.

B1: ADVa011 (ssDNA)
DNA: AGCAGCACAGAGGTCAGATGGGGTTGTCGGTGTTTGCGGGCCTATGCGTGCTACCGTGAACCTATGCGTGCTACCGTGAA
In the case of B1, the Kd is 2090 ± 754 nM.

B2: ADVa012 (ssDNA)
DNA: AGCAGCACAGAGGTCAGATGAGCTAGTGCCTATGCGTGCTACCGTGAATAGCGTCAGCAGCCTATGCGTGCTACCGTGAA
For B2, the Kd worked out at 930 ± 285 nM.

B3: ADVa014 (ssDNA)
DNA: AGCAGCACAGAGGTCAGATGTGTTGTCCCGGGGCCCTATGCGTGCTACCGTGAATAGCGTCCTATGCGTGCTACCGTGAA
For B3, the Kd is 247 ± 62.5 nM.

B4: ADVa001 (ssDNA)
DNA: AGCAGCACAGAGGTCAGATGGTGTGTGTGTGTGTGTGTGTGCCTATGCGTGCTACCGTGACCTATGCGTGCTACCGTGAA
Turning to B4, the Kd was found to be 566 ± 127 nM.
